Laboratory results as given in article PMC2575790.

Target: GST–α-adaptin ear (UniProt P17427)
Assay: pull-down

Chain of GST–α-adaptin ear (P17427 whole entry): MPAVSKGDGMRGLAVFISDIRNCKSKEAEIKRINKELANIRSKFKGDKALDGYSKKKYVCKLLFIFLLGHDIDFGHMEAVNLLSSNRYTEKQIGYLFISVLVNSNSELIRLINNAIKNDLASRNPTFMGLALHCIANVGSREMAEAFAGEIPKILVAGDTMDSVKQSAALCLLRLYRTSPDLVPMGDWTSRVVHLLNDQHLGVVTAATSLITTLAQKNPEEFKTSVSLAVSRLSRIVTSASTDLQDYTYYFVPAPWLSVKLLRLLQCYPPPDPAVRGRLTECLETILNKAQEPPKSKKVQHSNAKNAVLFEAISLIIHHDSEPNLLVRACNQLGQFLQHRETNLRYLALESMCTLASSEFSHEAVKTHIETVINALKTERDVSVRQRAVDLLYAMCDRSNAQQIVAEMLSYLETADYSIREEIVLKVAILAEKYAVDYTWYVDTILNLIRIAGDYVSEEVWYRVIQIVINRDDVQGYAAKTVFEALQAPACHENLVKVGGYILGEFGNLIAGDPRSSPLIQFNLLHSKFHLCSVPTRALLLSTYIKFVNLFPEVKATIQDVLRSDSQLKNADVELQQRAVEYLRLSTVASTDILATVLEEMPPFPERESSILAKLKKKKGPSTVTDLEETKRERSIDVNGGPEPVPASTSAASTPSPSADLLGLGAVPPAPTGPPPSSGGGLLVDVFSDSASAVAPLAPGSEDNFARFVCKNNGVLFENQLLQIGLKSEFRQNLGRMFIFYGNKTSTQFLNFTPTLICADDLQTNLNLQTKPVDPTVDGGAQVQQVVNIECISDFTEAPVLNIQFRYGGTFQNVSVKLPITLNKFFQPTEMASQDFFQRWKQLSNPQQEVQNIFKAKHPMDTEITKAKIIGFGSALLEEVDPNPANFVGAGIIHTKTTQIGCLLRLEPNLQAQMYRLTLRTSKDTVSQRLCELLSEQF
Chain of HA–hRME-6^wt (human RME-6, full length) (natural protein) (Q14C86 whole entry): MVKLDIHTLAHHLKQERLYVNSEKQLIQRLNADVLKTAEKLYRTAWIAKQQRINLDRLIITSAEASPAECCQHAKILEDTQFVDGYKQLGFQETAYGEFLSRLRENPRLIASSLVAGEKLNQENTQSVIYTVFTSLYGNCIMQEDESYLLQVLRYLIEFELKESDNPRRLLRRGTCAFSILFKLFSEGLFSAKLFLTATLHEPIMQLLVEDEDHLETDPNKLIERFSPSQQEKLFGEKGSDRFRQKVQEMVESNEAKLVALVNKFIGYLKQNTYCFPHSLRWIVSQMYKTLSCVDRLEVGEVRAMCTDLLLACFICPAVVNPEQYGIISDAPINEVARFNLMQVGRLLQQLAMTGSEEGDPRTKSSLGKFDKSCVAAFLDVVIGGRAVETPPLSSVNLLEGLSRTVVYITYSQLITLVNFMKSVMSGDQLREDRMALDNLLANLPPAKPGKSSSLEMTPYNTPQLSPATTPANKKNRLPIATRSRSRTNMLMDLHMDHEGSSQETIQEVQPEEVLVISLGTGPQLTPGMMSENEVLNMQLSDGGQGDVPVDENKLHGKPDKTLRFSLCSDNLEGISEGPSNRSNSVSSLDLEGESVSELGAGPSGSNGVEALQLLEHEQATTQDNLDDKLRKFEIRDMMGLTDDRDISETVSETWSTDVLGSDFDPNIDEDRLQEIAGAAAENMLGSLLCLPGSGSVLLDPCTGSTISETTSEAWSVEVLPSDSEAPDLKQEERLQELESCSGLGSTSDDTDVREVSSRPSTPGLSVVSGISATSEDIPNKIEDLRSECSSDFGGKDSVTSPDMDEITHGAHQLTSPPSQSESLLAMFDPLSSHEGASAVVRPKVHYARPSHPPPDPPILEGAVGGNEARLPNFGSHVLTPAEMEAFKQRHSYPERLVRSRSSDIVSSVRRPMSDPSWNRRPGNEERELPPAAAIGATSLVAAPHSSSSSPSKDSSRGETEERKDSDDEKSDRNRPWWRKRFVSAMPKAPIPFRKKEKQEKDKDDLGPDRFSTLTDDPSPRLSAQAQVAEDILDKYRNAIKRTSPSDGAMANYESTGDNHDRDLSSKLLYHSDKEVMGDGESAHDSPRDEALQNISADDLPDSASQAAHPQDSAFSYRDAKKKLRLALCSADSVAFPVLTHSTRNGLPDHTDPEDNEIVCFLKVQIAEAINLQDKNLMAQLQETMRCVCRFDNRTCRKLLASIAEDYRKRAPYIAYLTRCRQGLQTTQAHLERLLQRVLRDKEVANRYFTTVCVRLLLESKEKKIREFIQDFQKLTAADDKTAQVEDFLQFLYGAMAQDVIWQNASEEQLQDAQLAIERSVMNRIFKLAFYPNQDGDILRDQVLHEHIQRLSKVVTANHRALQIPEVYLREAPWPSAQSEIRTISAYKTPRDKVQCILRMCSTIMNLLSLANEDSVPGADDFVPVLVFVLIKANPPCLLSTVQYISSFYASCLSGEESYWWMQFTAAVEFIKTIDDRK

Substance | fold reduction of binding against hRME-6^wt | fold reduction of binding against hRME-6 from mock-treated cytosol
HA–hRME-6^F1487A (natural protein) | 5 fold | –
HA–hRME-6^wt (human RME-6, full length) (natural protein) | – | > 2 fold
